We go through 3 molecules from patent publication US20030087315A1 (MCP HAHNEMANN UNIVERSITY, published 2003).

Assay [1] addresses T1, α2(I) chain of type I collagen (mouse, UniProt Q01149 97-1110, limits assumed).
T1 construct: Denatured chain on a nitrocellulose filter; pepsin-treated collagen
The assay is described as follows: filter binding assay, electroblotted chains, avidin-peroxidase. An excerpt:
(§1) The α1(I) and α2(I) chains of type I collagen or CNBr fragments of the chains were separated by polyacrylamide gel electrophoresis and electroblotted onto filters. The filters were then hybridized with a biotinylated telopeptide followed by assay of the washed filter with streptavidin-horseradish peroxidase. “CNBr+” indicates α1(I) or α2(I) chains which were digested with cyanogen bromide.
Type I collagen extracted with 0.5 M acetic acid from mouse skin was digested with pepsin, and the a chains separated by gel electrophoresis in SDS. To generate CNBr peptides, gel slices containing α1(1) and α2(I) chains were placed into tubes and a chains were digested with 10 mg/ml or 200 mg/ml CNBr in 70% formic acid at room temperature overnight. The gel slices were equilibrated with 0.05 mM Tris-HCl buffer (pH 6.8) over 3 hours. Gel pieces containing CNBr peptides derived from individual collagen a chains were transferred into the wells of the second gel prepared with a 6% polyacrylamide stacking gel and 12% polyacrylamide separating gel with 0.5 M urea. After electrophoresis, the gel was electroblotted overnight at 4° C. onto a nitrocellulose filter (Millipore). To study binding of telopeptides to collagen fragments, the method described by Fujisawa et al. (Fujisawa et al., 1994, Calcif. Tiss. Int. 56:140-144) was used. The filters were blocked with 1% bovine serum albumin (Sigma) and then incubated overnight with 20 ml of 5 mg/ml peptide that was substituted at the N-terminus with biotin (synthesized for us by American Peptide Company, Inc.). The filter was washed three times with Tris-buffered saline containing 0.02% Tween (TBST) and incubated 30 min with a 1:30,000 dilution of horseradish peroxidase conjugated with avidin (Sigma). The bands were detected by chemiluminescence (ECL; Amersham) after exposure to an X-ray film for 3 to 10 min.

Assay [2] deals with T2, α1(I) chain of type I collagen (mouse, UniProt P11087 168-1181, limits assumed).
T2 construct: Denatured chain on a nitrocellulose filter; pepsin-treated collagen; also called α1 chain
The assay is described as follows: electroblot assay, FIG. 5B.
Source text: as §1
(§2) Type I collagen extracted with 0.5 M acetic acid from mouse skin was digested with pepsin, and the a chains separated by gel electrophoresis in SDS. To generate CNBr peptides, gel slices containing α1(1) and α2(I) chains were placed into tubes and a chains were digested with 10 mg/ml or 200 mg/ml CNBr in 70% formic acid at room temperature overnight. The gel slices were equilibrated with 0.05 mM Tris-HCl buffer (pH 6.8) over 3 hours. Gel pieces containing CNBr peptides derived from individual collagen a chains were transferred into the wells of the second gel prepared with a 6% polyacrylamide stacking gel and 12% polyacrylamide separating gel with 0.5 M urea. After electrophoresis, the gel was electroblotted overnight at 4° C. onto a nitrocellulose filter (Millipore). […] The bands were detected by chemiluminescence (ECL; Amersham) after exposure to an X-ray film for 3 to 10 min.

Assay [3] addresses T2, α1(I) chain of type I collagen. Description: electroblot assay, FIG. 5C.
Source text: as §1, §2

No end group written: not given here. *: point of attachment. Biotin = O=C1N[C@H]2[C@H](CS[C@H]2CCCCC(=O)*)N1

T1 sequence (Q01149 97-1110 limits assumed): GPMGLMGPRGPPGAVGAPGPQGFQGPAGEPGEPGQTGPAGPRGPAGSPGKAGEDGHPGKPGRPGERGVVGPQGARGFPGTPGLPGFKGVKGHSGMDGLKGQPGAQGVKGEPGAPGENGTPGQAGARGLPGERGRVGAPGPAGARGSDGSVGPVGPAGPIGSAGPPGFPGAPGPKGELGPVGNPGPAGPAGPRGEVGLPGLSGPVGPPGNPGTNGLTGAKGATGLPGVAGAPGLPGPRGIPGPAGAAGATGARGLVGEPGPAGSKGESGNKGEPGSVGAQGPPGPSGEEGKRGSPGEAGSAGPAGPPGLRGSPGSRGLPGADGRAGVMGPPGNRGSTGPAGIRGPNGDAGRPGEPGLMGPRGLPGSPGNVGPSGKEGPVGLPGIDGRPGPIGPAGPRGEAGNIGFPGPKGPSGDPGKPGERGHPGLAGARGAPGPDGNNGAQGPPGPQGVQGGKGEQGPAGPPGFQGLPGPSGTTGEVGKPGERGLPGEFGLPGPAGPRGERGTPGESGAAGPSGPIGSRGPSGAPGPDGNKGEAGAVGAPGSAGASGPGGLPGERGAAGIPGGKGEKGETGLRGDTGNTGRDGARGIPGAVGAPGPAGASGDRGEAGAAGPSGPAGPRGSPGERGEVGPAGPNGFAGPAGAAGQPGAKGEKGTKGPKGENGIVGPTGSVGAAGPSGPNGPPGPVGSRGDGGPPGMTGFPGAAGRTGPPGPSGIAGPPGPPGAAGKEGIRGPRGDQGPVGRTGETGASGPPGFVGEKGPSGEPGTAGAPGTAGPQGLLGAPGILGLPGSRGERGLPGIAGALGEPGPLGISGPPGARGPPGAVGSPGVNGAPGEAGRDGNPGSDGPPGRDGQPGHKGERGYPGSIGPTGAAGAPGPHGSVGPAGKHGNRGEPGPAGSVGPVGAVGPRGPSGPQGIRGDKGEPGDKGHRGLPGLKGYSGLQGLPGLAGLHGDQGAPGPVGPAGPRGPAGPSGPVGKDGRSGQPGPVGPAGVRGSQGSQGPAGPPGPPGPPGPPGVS
T2 sequence (P11087 168-1181 limits assumed): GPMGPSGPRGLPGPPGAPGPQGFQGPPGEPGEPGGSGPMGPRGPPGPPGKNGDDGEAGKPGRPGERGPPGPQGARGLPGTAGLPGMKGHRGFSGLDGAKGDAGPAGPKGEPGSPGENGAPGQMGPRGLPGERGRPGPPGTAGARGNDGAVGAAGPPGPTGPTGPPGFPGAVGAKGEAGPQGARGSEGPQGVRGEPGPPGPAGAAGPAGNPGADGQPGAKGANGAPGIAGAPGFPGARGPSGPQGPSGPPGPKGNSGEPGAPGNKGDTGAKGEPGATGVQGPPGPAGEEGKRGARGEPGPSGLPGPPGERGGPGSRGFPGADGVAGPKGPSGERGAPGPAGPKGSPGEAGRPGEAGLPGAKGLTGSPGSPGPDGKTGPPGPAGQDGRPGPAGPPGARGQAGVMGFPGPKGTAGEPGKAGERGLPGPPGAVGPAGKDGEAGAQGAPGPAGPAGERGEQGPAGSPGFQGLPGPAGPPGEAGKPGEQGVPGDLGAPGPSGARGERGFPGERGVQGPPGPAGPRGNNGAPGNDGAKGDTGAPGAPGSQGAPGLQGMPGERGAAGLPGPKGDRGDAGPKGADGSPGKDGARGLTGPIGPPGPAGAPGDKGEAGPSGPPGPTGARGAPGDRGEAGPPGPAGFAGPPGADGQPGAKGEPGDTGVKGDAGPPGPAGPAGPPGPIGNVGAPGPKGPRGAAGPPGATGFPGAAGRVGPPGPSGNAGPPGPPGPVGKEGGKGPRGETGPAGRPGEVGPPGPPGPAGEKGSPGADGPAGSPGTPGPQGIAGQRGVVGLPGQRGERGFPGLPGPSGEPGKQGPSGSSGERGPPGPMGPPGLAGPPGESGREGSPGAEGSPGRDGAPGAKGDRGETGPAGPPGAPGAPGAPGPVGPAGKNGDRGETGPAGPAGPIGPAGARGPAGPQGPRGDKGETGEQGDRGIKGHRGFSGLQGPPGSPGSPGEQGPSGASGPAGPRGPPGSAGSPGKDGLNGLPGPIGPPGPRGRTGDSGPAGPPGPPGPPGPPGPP

B1: biotinylated C-telopeptide of α2 chain of human type I collagen (peptide)
peptide: Biotin-GGGYDFGYDGDFYRA
notes: also called biotinylated F3
Turning to B1, the binding result in assay [1] is “no binding (tested: 5 mg/ml peptide (so in the source))”; in assay [2] it was “binds”.

B2: biotinylated N-telopeptide of α2 chain of human type I collagen (peptide, UniProt P08123 80-90, looked up)
peptide: Biotin-QYDGKGVGLGP
notes: domain: N-telopeptide; also called biotinylated α2 N-telopeptide
Turning to B2, in assay [1], the binding result is “no binding (tested: 5 mg/ml peptide (so in the source))”.

B3: biotinylated N-telopeptide of the α1 chain of human type I collagen (peptide)
peptide: Biotin-QLSYGYDEKSTGGISVP
notes: also called biotinylated α1 N-telopeptide
Consider B3, for which the binding result in assay [1] is “no binding (tested: 5 mg/ml peptide (so in the source))”; in assay [3] it was “binds”.
